# Assay results reported in patent US12006519B2, “Polymerase mutants and use with 3′-OH unblocked reversible terminators” (Agilent Technologies, Inc., priority 2021, dated 2024).
# B1: Pfu2: Pfu DNA polymerase with D141A/E143A/A486L/Y546H (protein, UniProt P61875 1-775, looked up, variant D141A E143A A486L Y546H)
# DNA polymerase: MILDVDYITEEGKPVIRLFKKENGKFKIEHDRTFRPYIYALLRDDSKIEEVKKITGERHGKIVRIVDVEKVEKKFLGKPITVWKLYLEHPQDVPTIREKVREHPAVVDIFEYDIPFAKRYLIDKGLIPMEGEEELKILAFAIATLYHEGEEFGKGPIIMISYADENEAKVITWKNIDLPYVEVVSSEREMIKRFLRIIREKDPDIIVTYNGDSFDFPYLAKRAEKLGIKLTIGRDGSEPKMQRIGDMTAVEVKGRIHFDLYHVITRTINLPTYTLEAVYEAIFGKPKEKVYADEIAKAWESGENLERVAKYSMEDAKATYELGKEFLPMEIQLSRLVGQPLWDVSRSSTGNLVEWFLLRKAYERNEVAPNKPSEEEYQRRLRESYTGGFVKEPEKGLWENIVYLDFRALYPSIIITHNVSPDTLNLEGCKNYDIAPQVGHKFCKDIPGFIPSLLGHLLEERQKIKTKMKETQDPIEKILLDYRQKLIKLLANSFYGYYGYAKARWYCKECAESVTAWGRKYIELVWKELEEKFGFKVLYIDTDGLHATIPGGESEEIKKKALEFVKYINSKLPGLLELEYEGFYKRGFFVTKKRYAVIDEEGKVITRGLEIVRRDWSEIAKETQARVLETILKHGDVEEAVRIVKEVIQKLANYEIPPEKLAIYEQITRPLHEYKAIGPHVAVAKKLAAKGVKIKPGMVIGYIVLRGDGPISNRAILAEEYDPKKHKYDAEYYIENQVLPAVLRILEGFGYRKEDLRYQKTRQVGLTSWLNIKKS
# B2: Pfu10: Pfu D141A/E143A/K477W/A486L/Y546H, SEQ ID NO:2 (protein)
# chain: MILDVDYITEEGKPVIRLFKKENGKFKIEHDRTFRPYIYALLRDDSKIEEVKKITGERHGKIVRIVDVEKVEKKFLGKPITVWKLYLEHPQDVPTIREKVREHPAVVDIFEYDIPFAKRYLIDKGLIPMEGEEELKILAFAIATLYHEGEEFGKGPIIMISYADENEAKVITWKNIDLPYVEVVSSEREMIKRFLRIIREKDPDIIVTYNGDSFDFPYLAKRAEKLGIKLTIGRDGSEPKMQRIGDMTAVEVKGRIHFDLYHVITRTINLPTYTLEAVYEAIFGKPKEKVYADEIAKAWESGENLERVAKYSMEDAKATYELGKEFLPMEIQLSRLVGQPLWDVSRSSTGNLVEWFLLRKAYERNEVAPNKPSEEEYQRRLRESYTGGFVKEPEKGLWENIVYLDFRALYPSIIITHNVSPDTLNLEGCKNYDIAPQVGHKFCKDIPGFIPSLLGHLLEERQKIKTKMKETQDPIEWILLDYRQKLIKLLANSFYGYYGYAKARWYCKECAESVTAWGRKYIELVWKELEEKFGFKVLYIDTDGLHATIPGGESEEIKKKALEFVKYINSKLPGLLELEYEGFYKRGFFVTKKRYAVIDEEGKVITRGLEIVRRDWSEIAKETQARVLETILKHGDVEEAVRIVKEVIQKLANYEIPPEKLAIYEQITRPLHEYKAIGPHVAVAKKLAAKGVKIKPGMVIGYIVLRGDGPISNRAILAEEYDPKKHKYDAEYYIENQVLPAVLRILEGFGYRKEDLRYQKTRQVGLTSWLNIKKS
# modifications: Mutant of Pyrococcus furiosus Polymerase
# How the values were obtained:
# Type in all cases: biochemical
# Lightning Terminators [1] = assay: Sequencing-by-synthesis with Lightning Terminators (87 cycles); parameters: ARL (87 cycles) / Lead + Lag / Leading / Lagging: unit not given here
# Method: (§1) This section generally describes how the present mutant polymerases were used for sequencing-by-synthesis, and how their performance in sequencing was measured. Sequencing was performed on a breadboard instrument, essentially as described in Hertzog D, et al., “A high-performance, low-cost approach to next-generation sequencing”, BioOptics World. 2011 Issue November/December 2011.
# In this example, mutations were introduced into the DNA polymerase of SEQ ID NO: 12 (Therminator) in an attempt to improve its capability in sequencing with 3′-OH unblocked terminators. Such mutations to Thermococcus sp. 9° N DNA polymerase are disclosed in U.S. Pat. Nos. 9,273,352; 9,677,059; 9,765,309; U.S. Pat. App. Publication No. 20160032377. The following table summarizes sequencing metrics with Lightning Terminators.
# As used in this example and those that follow, “Lead+Lag” refers to dephasing errors in Sequencing by Synthesis technology caused by either reading the next base signal (Lead) or reading the previous base signal (Lag) relative to current base signals. Such errors may arise because of imperfect incoporation of reversible terminators by the polymerase.
# In this example, mutant polymerases were created by introducing certain mutations (D141A/E143A/A485L) which are present in Therminator. The three mutations were introduced at the equivalent positions in JDF3 (Thermococcus sp. JDF3) and Pfu (Pyrococcus furisosus) DNA polymerases. The new mutant polymerases were then evaluated for their performance in sequencing with Lightning Terminators, as described above.
# LTC = assay: Plate-based assay with immobilized primer-templates, incorporation of LTC; conditions: FIG. 6
# Method: (§2) In this example, additional mutant polymerases were derived from Pfu polymerase. To generate the mutants, eighty-seven codons in the Pfu pol B gene were saturated using the QuikChange Lightning Mutagenesis kit and oligonucleotides containing “NDT” codons to create R, N, D, C, G, H, I, L, F, S, Y, and V substitutions with equal frequency. In some cases, mutants missing from NDT libraries were prepared in a separate QuikChange reaction with an equimolar mixture of mutagenic oligos encoding the remaining mutations (A, T, K, Q, E, P, […], W). Thirty-two clones were randomly selected from each QuikChange library (with the exception of T267, Y403, Y410, I475, G499 and K675 libraries which generated fewer transformants). Bacterial lysates were prepared and screened for incorporation of LTA and LTC using a plate-based assay with immobilized primer-templates. A limited number of mutants were also screened for utilization of LTG and LTU (similar trends; data not shown). After washing and UV cleavage (to minimize dye quenching effects), plates were read and fluorescent signals compared to Pfu controls. The following table identifies four mutant Pfu polymerases that served as controls, which were given the arbitrary names Pfu5, Pfu1, and Pfu2, along with Pfu10 (which is discussed above).
# Lightning Terminators [2] = assay: Plate-based assay, incorporation of Lightning Terminators by control extracts; conditions: for Utilization of Lightning Terminators (in words): control extracts, FIG. 6, FIGS. 7A-7B
# Method: as §2
# Selected lysates, based on screening results, were submitted for sequencing, and an amino acid identification was made based on the selections. […] As shown in Example 3, K477W benefits sequencing by increasing the fraction of full-length reads.
# Human DNA library = assay: Sequencing with Lightning Terminators, Human DNA library (120 cycles); conditions: Human DNA library
# Method: as §1
# (§3) In this example, a variety of mutations were introduced into Pfu10 by multi-site mutagenesis or into Pfu A486L/Y546H by domain substitutions to explore an acceptable degree of reduced identity and identify other mutant Pfu polymerases containing L486, F494, H546, and W477. […] Pfu10 and Pfu10-N12 were evaluated for performance in sequencing with Lightning Terminators, as described above.
# E. coli DNA library = assay: Sequencing with Lightning Terminators, E. coli DNA library (120 cycles)
# Method: as §1, §3
# dATP = assay: Template-independent DNA synthesis assay with dATP (terminal transferase activity)
# Method: The template-independent DNA synthesis reactions employed 7.5 U TdT (Promega) or 180 nM (3×over primer) Pfu26 (D141A/E143A/A486L/Y546H/K477W/L409Y) or Pfu48 (D141A/E143A/A486R/Y546H/K477W/L409Y). Varying concentrations of dATP were added to 2 μM (TdT) or 60 nM (Pfu) T7 FOR primer (6′Fam […]) (SEQ ID NO:6) in duplicate reactions containing 1×TdT buffer with CoCl2(Promega) or 1×ThermoPol buffer (NEB). Reactions were incubated for 30 min. at 37° C. (TdT) or 60° C. (Pfu), and then inactivated with heat (TdT; 10 min. at 70° C.) or EDTA (1 ul 500 uM EDTA). Reaction products were exposed to UV using a Stratalinker (15-watt bulbs, […], 10 min). Reactions were diluted in water (TdT, 1:333; Pfu, 1:10) and 1 μl (TdT) or 0.5 μl (Pfu) aliquots were brought up to 10 μl with HiDI/LIZ 120 Size Standard. Products were heated at 95° C. for 5 min., cooled on ice for 2 min., and then analyzed on an ABI 3500 capillary electrophoresis system ([…] capillary, filter set #5, assay=GE5 LIZ120).
# Terminal transferase activity was measured by the number of template-independent dATP additions. Results are shown for TdT in FIG. 9A, for Pfu26 in FIG. 9B and for Pfu48 in FIG. 9C.
# [3] = alternative polymerases (D141A/E143A), same protein concentrations (0.02 ug/uL in cycle 1 and 0.002 ug/uL in cycles 2-n)
molecule,measurement,setting,value
B1,Sequencing performance with Lightning Terminators (in words),Lightning Terminators [1],nearly identical to Therminator
same,% reads >85,Lightning Terminators [1]; [3],49.7%
same,ARL (87 cycles),Lightning Terminators [1]; [3],75.3
same,Lead + Lag,Lightning Terminators [1]; [3],1.3
same,Incorporation of LTC (in words),LTC,maximize incorporation of LTC
same,Utilization of Lightning Terminators (in words),Lightning Terminators [2],could utilize Lightning Terminators
B2,Sequencing performance with Lightning Terminators (in words),Lightning Terminators [1],improved sequencing enzyme
same,% reads >85 bp,Lightning Terminators [1]; Example 3,69.5%
same,FracQ30,Lightning Terminators [1]; Example 3,0.62
same,Lagging,Lightning Terminators [1]; Example 3,0.66
same,Leading,Lightning Terminators [1]; Example 3,0.24
same,ARL (87 cycles),"Lightning Terminators [1]; Example 3, Therminator 110 runs, Pfu10 12 runs",80.4
same,% reads >85,Human DNA library,92.0%
same,ARL (120 cycles),Human DNA library,109.7
same,FracQ30,Human DNA library,0.65
same,Lead + Lag,Human DNA library,1.1
same,% reads >85,E. coli DNA library,79.9%
same,ARL (120 cycles),E. coli DNA library,92.3
same,FracQ30,E. coli DNA library,0.63
same,Lead + Lag,E. coli DNA library,0.8
same,Incorporation of LTC (in words),LTC,maximize incorporation of LTC
same,Effect on LTA and LTU incorporation (in words),"Lightning Terminators [2]; K477W, or final fluorescence due to tryptophan quenching",negative impact on LTA and LTU incorporation
same,Utilization of Lightning Terminators (in words),Lightning Terminators [2],could utilize Lightning Terminators
same,Non-templated dA-addition (terminal transferase activity),dATP,fail to perform non-templated dA-addition
